# Experimental data published in patent US20090263894A1 (AbbVie / Abbott, published 2009).
# Where a chain is given by its changes, count along the chain named.
# T1: NGAL rAg S112A displayed on yeast (human, UniProt P80188 21-198)
# T1 construct: Yeast display AGA2 fusion as m5
# T1 chain: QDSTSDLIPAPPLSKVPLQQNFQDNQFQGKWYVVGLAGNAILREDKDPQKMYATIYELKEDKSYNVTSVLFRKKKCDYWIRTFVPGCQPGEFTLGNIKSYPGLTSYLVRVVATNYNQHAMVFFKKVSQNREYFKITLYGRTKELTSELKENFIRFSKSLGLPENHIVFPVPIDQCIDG
# T2: NGAL rAg Q117A displayed on yeast (human, UniProt P80188 21-198)
# T2 construct: Yeast display AGA2 fusion as m5
# T2 chain: T1 chain with A112S, Q117A
# T3: NGAL rAg E147A displayed on yeast (human, UniProt P80188 21-198)
# T3 construct: Yeast display AGA2 fusion as m5
# T3 chain: T1 chain with A112S, E147A
# T4: NGAL rAg H118A displayed on yeast (human, UniProt P80188 21-198)
# T4 construct: Yeast display AGA2 fusion as m5
# T4 chain: T1 chain with A112S, H118A
# T5: NGAL rAg A119G displayed on yeast (human, UniProt P80188 21-198)
# T5 construct: Yeast display AGA2 fusion as m5
# T5 chain: T1 chain with A112S, A119G
# T6: NGAL rAg G160A displayed on yeast (human, UniProt P80188 21-198)
# T6 construct: Yeast display AGA2 fusion as m5
# T6 chain: T1 chain with A112S, G160A
# T7: NGAL rAg S14A displayed on yeast (human, UniProt P80188 21-198)
# T7 construct: Yeast display AGA2 fusion as m5
# T7 chain: T1 chain with S14A, A112S
# T8: NGAL rAg S158A displayed on yeast (human, UniProt P80188 21-198)
# T8 construct: Yeast display AGA2 fusion as m5
# T8 chain: T1 chain with A112S, S158A
# B1: anti-NGAL monoclonal antibody 1-2322-455 (antibody, V domains shown)
# VH: EVQLVESGGGLVQPGGSLKLSCAASGFTFNNYYMSWVRQTPERRLEWVAYISSSGGSTYYSDSVRGRFTISRDTARNTLYLQMTSLKSEDTAMYYCARHFGDYSYFDYWGQGTTLTVSS
# VL: DIQMTQSPASLSASVGETVTITCRASENFYSYLAWYQQKQGKSPQLLVYNAKTLAEGVPSRFSGSGSGTQFSLKINSLQPEDFGTYYCQHHYDIPLTFGAGTKLELKR
# B2: anti-NGAL monoclonal antibody 1-903-430 (antibody, V domains shown)
# VH: KIQLVQSGPELKKPGETVKISCKASGYTFTNYGMNWVKQAPGKGLKWMGWININTGEPTYAEEFKGRFAFSLETSATTAFLQINNLKNEDTATYLCARDSYSGGFDYWGQGTIVTVSS
# VL: DIVMTQSPSSLSVSAGEKVTLSCKSSQSLLISGDQKNYLAWYQQKPGQPPKLLIYGASTRDSGVPDRFTGSGSGADFTLTISSVQAEDLAVYYCQNDHSFPPTFGAGTKLELKR
# Assays:
# [1] = biological target: T1, NGAL rAg S112A displayed on yeast; assay: flow cytometry, mAb titrated on yeast displaying NGAL
# Procedure: (§1) The side chain of each of the NGAL rAg residues identified from the epitope selections was altered by site-directed mutagenesis to alanine to confirm the functional epitope (direct contact residues) of each NGAL mAb subclone.
# (§2) The change in Gibbs free binding energy (ΔΔG_Ala-WT) was determined to assess the energetic impact of each alanine substitution for mAb binding. The change in Gibbs free binding energy upon alanine substitution was calculated using the following equation [2],
# (§3) For these experiments, observed fluorescence (F) was used to solve for KD using equation [1]. The KD derived from equation [1] one was then used in equation [2] to derive the change in Gibbs free binding energy upon alanine substitution. The KD is read from the abscissa of each of the curves at the inflection point.
# [2] = biological target: T2, NGAL rAg Q117A displayed on yeast; assay: as above
# Procedure: as §1, §2, §3
# [3] = biological target: T3, NGAL rAg E147A displayed on yeast; assay: as above
# Procedure: as §1, §2, §3
# [4] = biological target: T4, NGAL rAg H118A displayed on yeast; assay: as above
# Procedure: as §1, §2, §3
# [5] = biological target: T5, NGAL rAg A119G displayed on yeast; assay: as above
# Procedure: as §1, §2, §3
# [6] = biological target: T6, NGAL rAg G160A displayed on yeast; assay: as above
# Procedure: as §1, §2, §3
# [7] = biological target: T7, NGAL rAg S14A displayed on yeast; assay: as above
# Procedure: as §1, §2, §3
# [8] = biological target: T8, NGAL rAg S158A displayed on yeast; assay: as above
# Procedure: as §1, §2, §3
# [9] = biological target: T7, NGAL rAg S14A displayed on yeast; assay: flow cytometry titration of the mAb on yeast displaying the NGAL antigen, detection with GaM-PE, fractional binding
# [10] = biological target: T9, wild-type NGAL antigen displayed on yeast (AGA2 fusion) (human, UniProt P80188 21-198); assay: as above
# T9 construct: also called WT
# [11] = biological target: T8, NGAL rAg S158A displayed on yeast; assay: as above
binder,measurement,setting,value
B1,Kd,[1],0.0793 nM
same,ΔKD (KD against KD of WT),[1],9.79 fold
same,ΔΔG Ala-WT,[1],1.35 kcal/mol
same,Kd,[2],0.0307 nM
same,ΔKD (KD against KD of WT),[2],3.79 fold
same,ΔΔG Ala-WT,[2],0.79 kcal/mol
same,Kd,[3],492 nM
same,ΔKD (KD against KD of WT),[3],61000 fold
same,ΔΔG Ala-WT,[3],6.5 kcal/mol
same,Kd,[4],0.114 nM
same,ΔKD (KD against KD of WT),[4],14.1 fold
same,ΔΔG Ala-WT,[4],1.56 kcal/mol
same,Kd,[5],0.00783 nM
same,ΔKD (KD against KD of WT),[5],0.97 fold
same,ΔΔG Ala-WT,[5],-0.02 kcal/mol
B2,Kd,[6],0.164 nM
same,ΔKD (KD against KD of WT),[6],0.8 fold
same,ΔΔG Ala-WT,[6],-0.13 kcal/mol
same,Kd,[7],0.281 nM
same,ΔKD (KD against KD of WT),[7],1.38 fold
same,ΔΔG Ala-WT,[7],0.19 kcal/mol
same,Kd,[8],0.242 nM
same,ΔKD (KD against KD of WT),[8],1.19 fold
same,ΔΔG Ala-WT,[8],0.1 kcal/mol
same,EC50 (read off the curve),[9],~0.3 nM
same,EC50 (read off the curve),[10],~0.2 nM
same,EC50 (read off the curve),[11],~0.2 nM
